From the supplement of paper PMC6757056
± gives the standard deviation of the averaged measurements.

B1: library; a variant is named by its letters at N, in order (parent)
chain: GCUGUCACCGGUGUAUUACCCUAGUGGUCGACCGGUCUGAUGAGUCUNNNNNNAGACGAAACAGC

Columns and labels:
[1] = variants of: B1; experiment: FACS-Seq fitted mean relative fluorescence mCherry/BFP without ligand (log10 relative fluorescence); ligand: hypoxanthine (xanthine aptamer); higher = higher reporter protein expression; details: HEK293T, ligand present: no
Procedure: (§1)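 Hammerhead (sTRSV) ribozyme switch libraries with a ligand aptamer grafted on stem I and a randomized N4-6 loop II, cloned into the 3' UTR of mCherry and transiently transfected into HEK293T cells; RNA-Seq 72 h post transfection with ligand added 1 h before transfection; RNA read count / plasmid DNA read count normalized to the non-cleaving sTRSVctl (x100), log10; sequences with >100 DNA reads. FACS-Seq: lentiviral library sorted into 6 bins after 48 h ligand, log-normal fit mean of mCherry/BFP scaled to controls. Printed sequences are partial switch sequences.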

[2] = variants of: B1; experiment: normalized RNA/DNA level with ligand (relative to sTRSVctl = 100) (log10 (% of sTRSVctl)); ligand: hypoxanthine (xanthine aptamer); higher = less ribozyme self-cleavage, higher mRNA level; details: ligand concentration (+) RNA-Seq: 5 mM, HEK293T, reporter: mCherry (pCS4076), ligand present: yes
Procedure: as §1

[3] = variants of: B1; experiment: normalized RNA/DNA level without ligand (relative to sTRSVctl = 100) (log10 (% of sTRSVctl)); ligand: hypoxanthine (xanthine aptamer); higher = less ribozyme self-cleavage, higher mRNA level; details: HEK293T, reporter: mCherry (pCS4076), ligand present: no
Procedure: as §1

[4] = variants of: B1; experiment: FACS-Seq fitted mean relative fluorescence mCherry/BFP with ligand (log10 relative fluorescence); ligand: hypoxanthine (xanthine aptamer); ligand concentration (+) FACS-Seq: 5 mM; higher = higher reporter protein expression; details: HEK293T, ligand present: yes
Procedure: as §1

Row | Variant | FACS-Seq fitted mean (log10) [1] | normalized RNA/DNA level with ligand (log10) [2] | normalized RNA/DNA level without ligand (log10) [3] | FACS-Seq fitted mean (log10) [4]
1 | GCUGUCACCGGUGUAUUACCCUAGUGGUCGACCGGUCUGAUGAGUCUAUACAGAGACGAAACAGC [AUACAG] | 0.1 ± 0.018 | 1.814 ± 0.017 | 1.45 ± 0.039 | 0.561 ± 0.031
2 | GCUGUCACCGGUGUAUUACCCUAGUGGUCGACCGGUCUGAUGAGUCUGCGUUAAGACGAAACAGC [GCGUUA] | 0.535 ± 0.018 | 1.94 ± 0.037 | 1.65 ± 0.073 | 0.594 ± 0.022
3 | GCUGUCACCGGUGUAUUACCCUAGUGGUCGACCGGUCUGAUGAGUCUUAGUGGAGACGAAACAGC [UAGUGG] | 0.242 ± 0.04 | 1.861 ± 0.015 | 1.41 ± 0.019 | 0.511 ± 0.035
4 | GCUGUCACCGGUGUAUUACCCUAGUGGUCGACCGGUCUGAUGAGUCUUGCAGUAGACGAAACAGC [UGCAGU] | -0.0358 ± 0.0051 | 1.906 ± 0.016 | 1.434 ± 0.0054 | 0.345 ± 0.15
5 | GCUGUCACCGGUGUAUUACCCUAGUGGUCGACCGGUCUGAUGAGUCUCAAAAAAGACGAAACAGC [CAAAAA] | 0.52 ± 0.1 | 1.9 ± 0.04 | 1.74 ± 0.025 | 0.526 ± 0.038
6 | GCUGUCACCGGUGUAUUACCCUAGUGGUCGACCGGUCUGAUGAGUCUAAGAAGAGACGAAACAGC [AAGAAG] | -0.35 ± 0.015 | 1.545 ± 0.013 | 1.04 ± 0.028 | 0.459 ± 0.029
7 | GCUGUCACCGGUGUAUUACCCUAGUGGUCGACCGGUCUGAUGAGUCUUCCUGGAGACGAAACAGC [UCCUGG] | 0.439 ± 0.047 | 1.94 ± 0.025 | 1.77 ± 0.073 | 0.518 ± 0.021
8 | GCUGUCACCGGUGUAUUACCCUAGUGGUCGACCGGUCUGAUGAGUCUACGAUAAGACGAAACAGC [ACGAUA] | 0.143 ± 0.0029 | 1.87 ± 0.03 | 1.582 ± 0.013 | 0.508 ± 0.011
9 | GCUGUCACCGGUGUAUUACCCUAGUGGUCGACCGGUCUGAUGAGUCUCUCGGGAGACGAAACAGC [CUCGGG] | 0.547 ± 0.055 | 1.923 ± 0.0029 | 1.657 ± 0.0028 | 0.46 ± 0.0048
10 | GCUGUCACCGGUGUAUUACCCUAGUGGUCGACCGGUCUGAUGAGUCUAAUGUAAGACGAAACAGC [AAUGUA] | 0.284 ± 0.0037 | 1.9 ± 0.088 | 1.79 ± 0.047 | 0.204 ± 0.0096
11 | GCUGUCACCGGUGUAUUACCCUAGUGGUCGACCGGUCUGAUGAGUCUGCGUAGAGACGAAACAGC [GCGUAG] | -0.175 ± 0.014 | 1.566 ± 0.0039 | 1.15 ± 0.062 | 0.539 ± 0.027
12 | GCUGUCACCGGUGUAUUACCCUAGUGGUCGACCGGUCUGAUGAGUCUGUUUUGAGACGAAACAGC [GUUUUG] | 0.498 ± 0.038 | 1.9 ± 0.084 | 1.567 ± 0.002 | 0.551 ± 0.047
13 | GCUGUCACCGGUGUAUUACCCUAGUGGUCGACCGGUCUGAUGAGUCUGUAAAGAGACGAAACAGC [GUAAAG] | -0.0437 ± 0.028 | 1.82 ± 0.023 | 1.49 ± 0.045 | -0.15 ± 0.059
14 | GCUGUCACCGGUGUAUUACCCUAGUGGUCGACCGGUCUGAUGAGUCUGAAGCGAGACGAAACAGC [GAAGCG] | 0.1393 ± 0.001 | 1.8561 ± 0.0014 | 1.4 ± 0.075 | 0.56 ± 0.016
15 | GCUGUCACCGGUGUAUUACCCUAGUGGUCGACCGGUCUGAUGAGUCUCGUGCUAGACGAAACAGC [CGUGCU] | 0.599 ± 0.1 | 1.909 ± 0.0056 | 1.899 ± 0.0073 | 0.518 ± 0.04
16 | GCUGUCACCGGUGUAUUACCCUAGUGGUCGACCGGUCUGAUGAGUCUCUAAUGAGACGAAACAGC [CUAAUG] | 0.65 ± 0.052 | 1.922 ± 0.018 | 1.79 ± 0.068 | 0.577 ± 0.044
17 | GCUGUCACCGGUGUAUUACCCUAGUGGUCGACCGGUCUGAUGAGUCUCUGACAAGACGAAACAGC [CUGACA] | 0.453 ± 0.025 | 1.89 ± 0.0074 | 1.821 ± 0.017 | 0.522 ± 0.12
18 | GCUGUCACCGGUGUAUUACCCUAGUGGUCGACCGGUCUGAUGAGUCUCGGAUUAGACGAAACAGC [CGGAUU] | -0.13 ± 0.0099 | 1.94 ± 0.045 | 1.744 ± 0.0072 | 0.244 ± 0.014
19 | GCUGUCACCGGUGUAUUACCCUAGUGGUCGACCGGUCUGAUGAGUCUCUAGGAAGACGAAACAGC [CUAGGA] | 0.7992 ± 0.0063 | 1.938 ± 0.0084 | 1.859 ± 0.018 | 0.697 ± 0.022
20 | GCUGUCACCGGUGUAUUACCCUAGUGGUCGACCGGUCUGAUGAGUCUUUGAUAAGACGAAACAGC [UUGAUA] | 0.161 ± 0.022 | 1.93 ± 0.047 | 1.806 ± 0.01 | 0.277 ± 0.015
21 | GCUGUCACCGGUGUAUUACCCUAGUGGUCGACCGGUCUGAUGAGUCUUUAAAAAGACGAAACAGC [UUAAAA] | 0.501 ± 0.012 | 1.966 ± 0.016 | 1.795 ± 0.0061 | 0.388 ± 0.15
